In patent US20200131263A1 one finds EC50 data, which are given here for one substance.

Usually EC50 stands for the concentration that produces a half-maximal response.

This experiment addresses cynomolgus GITR (cyno-GITR) (cynomolgus). Description: ELISA, cyno GITR coated at 1 ug/ml.

The substance “reference antibody BMAB (Merck's MK-4166 antibody)” returned a concentration giving a half-maximal response (EC50) of 0.269 nM.
